According to article PMC9974510, “Structure of metallochaperone in complex with the cobalamin-binding domain of its target mutase provides insight into cofactor delivery” (Proceedings of the National Academy of Sciences of the …, 2023):

B1: Cbl-binding domain of the alpha subunit of Methylobacterium extorquens methylmalonyl-CoA mutase (domain or fragment, UniProt C5AV67 545-712, looked up)
chain: RAQIRSISGVYKREVGGMSPVVEKVRGLVEAFEENDGRRPRILVAKMGQDGHDRGQKVIASAFADLGFDVDIGPLFATPDEAARQAVENDVHIVGVSSLAAGHLTLVPELKAALKQEGRDDVMIVVGGVIPPGDYDALYAAGASAIFPPGTVIAEAAVNLLGELNTRL
notes: alpha subunit has 712 residues; Two constructs were made (N-terminal HisTag, of low solubility; C-terminal HisTag in pET28a at NcoI and XhoI); The crystal holds the C-terminal HisTag form (residues 713 to 714 of the tag modelled in chain C); the same form is surmised for the SEC and GTPase experiments; also called MeMCMcbl; MCMcbl; source: E. coli Bl21 T7 Express, purified (Ni-NTA, Superdex75 …)
B2: MeaB from Methylobacterium extorquens (natural protein, UniProt Q8RPA0 1-329, looked up)
chain: MSATLPDMDTLRERLLAGDRAALARAITLAESRRADHRAAVRDLIDAVLPQTGRAIRVGITGVPGVGKSTTIDALGSLLTAAGHKVAVLAVDPSSTRTGGSILGDKTRMARLAIDRNAFIRPSPSSGTLGGVAAKTRETMLLCEAAGFDVILVETVGVGQSETAVADLTDFFLVLMLPGAGDELQGIKKGILELADMIAVNKADDGDGERRASAAASEYRAALRILTPPSATWTPPVVTISGLHGKGLDSLWSRIEGHRSKLTATGEIAGKRREQDVKWMWALVHERLHQRLVGSAEVRQATAEAERAVAGGEHSPAAGADAIATLIGL
notes: MeaB, G-protein chaperone of methylmalonyl-CoA mutase, Methylobacterium extorquens, WP_003597297.1; 329 residues (Met1 to Leu329 of 329 named in the model of chain B); Synthetic gene in pET28a at NdeI and XhoI; also called G-protein metallochaperone MeaB; source: E. coli Bl21 T7 Express, purified (Ni-NTA, Superdex 200 SEC)

Legend:
[1] = biological target: the molecule itself; assay: SEC; analytical Superdex200 Increase 10/300 GL; each protein alone (50 µM MeaB); apparent molecular weights against gel filtration standards; 50 mM HEPES pH 7.5, 500 mM NaCl
[2] = biological target: B2; assay: cell-based or functional assay
[3] = biological target: B2; assay: SEC; analytical Superdex200 Increase 10/300 GL; 50 µM MeaB and 100 µM MeMCMcbl preincubated with 500 µM GMPPCP and 1 mM MgCl2; 50 mM HEPES pH 7.5, 500 mM NaCl; peaks identified by SDS-PAGE; conditions: both partners purified

B1
stoichiometry N [1]: 2
GTPase activity of MeaB (2 µM) with MeMCMcbl (4 µM), 500 µM GTP: inorganic phosphate produced, against MeaB alone [2]: 25 fold
stoichiometry N [3]: 1 MeMCMcbl dimer per MeaB dimer

B2
stoichiometry N [1]: 2
